# Assay results: the DeepSol protein solubility set
# Experiment: soluble on expression in E. coli; label from the status in PepcDB or PDB records
row,Sequence,soluble on expression in E. coli
1,MGSDKIHHHHHHMAEKTFINRLQLTDFRNYGSASLRLDGRHVVLTGNNGSGKTNLMEAVSFLSPGRGLRRAVLSDVARAGAASGFSIFASLEGMAGDVELGTGSEVLDETAVRRLRINGASVRSVDELTDHLRVLWLTPAMDGLFTGSSSERRRFLDRLVLSIDPQHGRRASDFERAMRSRNKLLSEGRFDASWLAGIEQQMAALGIAMALARQEMMRLLAALIEQRREPETFPGADLMLSGFMDEHAGTAAIDLEDTYRDSLAGSRGRDAAAGRTLEGPHRSDLLVRHREKDMEAERCSTGEQKALLIGLILAHAELVATMTGFAPILLLDEIAAHLDEGRRAALFDRIDVLGGQAFMTGTDAQMFASLGDRAQFVTVDDGHLSL,not soluble
2,MAEETQTVETVEEQVVPEAKQPQDEKKYTDADVDAIIDKKFAKWKSEQEAEKSEAKKMAKMNEKEKADYEKQKLLDELQELKNDKTRNELTAVARQMFAESEINVNDDVLGLVVTLDAEQTKANVTTLANAFAKVIADDRKALVRQTTPSTGGGLSKQTNYGANLASKAAQQSTKLF,not soluble
3,MSLSDVKVIIMDIDGTLTTSKKIISEKTKKALKKAQELGAVLILASGRPTSGLMDFAKELEMDKNHGLLVSFNGARVVDCETNKILFNETMSIDQGQAVLEHMKKFEVKPMIDKGDYMYVNDVFDNEIQYKGEPFNIIQYESRNNKFKLCEKHDLAAFADYPLNKILTAGEPEYLKKHYKEMMEPFKESLNCMFTADFYFEFTAEGIDKAKALDTVLIPMGYKKEEMIAFGDGHNDISMVKYAGIGVAMDNAVQELKNAADEVTLSNEEDGIAYTLSKYMKGLEGHHHHHH,soluble
4,MMYALIVCNGSIIDYSFYRKFFDEADFIVCADGGALHLQRLGIKPDVLLGDFDSIESEHLEYYMKQNVEILKFPAEKDMTDTELAVNTAIDRGYKNIVIIGGTGTRLDHTLSNIFLLKLMLDRGVKGRIINEYNEMFLINDSTEIEAEDGCYLTLLPLTSKVEGITTEGLYYPLRGEAIEMGSTRGVSNCFVEKKARISITSGILIAIKTRE,not soluble
5,MSKLIKGIAASDGVAIAKAYLLVEPDLTFDKNEKVTDVEGEVAKFNSAIEASKVELTKIRNNAEVQLGADKAAIFDAHLLVLDDPELIQPIQDKIKNENANAATALTDVTTQFVTIFESMDNEYMKERAADIRDVSKRVLSHILGVELPNPSMIDESVVIVGNDLTPSDTAQLNKEFVQGFATNIGGRTSASAIMSRSLEIPAIVGTKSITQEVKQGDMIIVDGLNGDVIVNPTEDELIAYQDKRERYFADKKELQKLRDADTVTVDGVHAELAANIGTPNDLPGVIENGAQGIGLYRTEFLYMGRDQMPTEEEQFEAYKEVLEAMGGKRVVVRTLDIGGDKELSYLNLPEEMNPFLGYRAIRLSLAQQDIFRPQLRALLRASVYGKLNIMFPMVATINEFREAKAILLEEKENLKNEGHDISDDIELGIMVEIPATAALADVFAKEVDFFSIGTNDLIQYTLAADRMSERVSYLYQPYNPSILRLVKQVIEASHKEGKWTGMCGEMAGDETAIPLLLGLGLDEFSMSATSILKARRQINGLSKNEMTELANRAVDCATQEEVIELVNNYVK,soluble
6,MNVDEDCYFASLTHGLNTDCRRANAKMKETLKNYNFSAFLVEQNCLRCPNNDCNLSFVLILQKTEFFRLKRDVVFEVRPTIVVHRSFKELVSADRKIRQDITEKNTVGVQASVETVNKFVDACPSICNIQSQTDIMAEKMHIGIQTEEVKFVSEISALGITEVECQNVFPTSFIKTEPVSTSPVRTMEVQQDNDDDDVMFIEIRPRIHEFPSTREIKQEENTTEDTVHLEKVIPEDSVRDVKDEPISEPVEQETSSSSISKELGDSGSSKFSDVADNHTASLNLSMLSQRSTVTSSSISQSIPTPRGRDTPSAAKRAKFSDVEMCRICWDVTFFTTLEEYCNHVQDRHCSVARFKCSSCERKFWDIRSGTQHLKAHNEDGAGNSISHILPEISEEHLSKFINVANQCYPETFRNTQSEKILDIINALP,not soluble
7,MSNRKFNLDNEVQPEIHFRLLSISASKFENDWTSFPHSHHFTEIFFIKDGTGRMLIENESLPVSSNSLVVIGAQVTHTEFSDPENPLDYYVLGVEGLKLNTDKEPEYIHVPASANSPFIRQCFENILREMHNKQDRYAEICQHYLDILILYFCRKDHVSYEVVDAQNSSRECHKVKRFIEHNYQSMISLDSLAENCSLSKYYLSHRFAELYGKSPIAYLNEVRLASARDLLLTTNHSIEEIAGCIGFSSTSYFSQSFQKNFHESPQQFRKSHRVRT,not soluble
8,MYKPTERNAQNSLAMMNYAYDTSLQETMILTEAFHTDRVICDNGSLYKFIWVQEGKLTLIVDHVEIEMEQDEIISVSNLHRTEFKNVSGRYLALLFNENFYGIYKHEKEVSCSGVLFNGTSGIVHLRLPIADSELLHEVVDRMVTEYILRDNLQGEMLRLLLKRFIILCTRLARKQLSGFPVNEKGFDIIQRYYVLVDNHFKEKKQVQAYAALLHRSPKTLSNLFAAYGMPSPLKIIQERVVTEAKRLLLHTSHSIKEISVILGFESVGTFSRFFKNMTGENTSAYRKRLQ,not soluble
9,MGRVYYINSHGTLSRHENTLRFENAEVKKDIPVEDVEEIFVFAELSLNTKLLNFLASKGIPLHFFNYYGYYTGTFYPRESSVSGHLLIKQVEHYLDAQKRLYLAKSFVIGSILNLEYVYKISADTYLNKVKETNSIPELMSVEAEFRKLCYKKLEEVTGWELEKRTKRPPQNPLNALISFGNSLTYAKVLGEIYKTQLNPTVSYLHEPSTKRFSLSLDVAEVFKPIFVDNLIIRLIQENKIDKTHFSTELNMTFLNEIGRKVFLKAFNELLETTIFYPKLNRKVSHRTLIKLELYKLIKHLLEEEVYLPLNYGGLK,soluble
10,MTQTLLAIENLSVGFRHQQTVRTVVNDVSLQIEAGETLALVGESGSGKSVTALSILRLLPSPPVEYLSGDIRFHGESLLHASDQTLRGVRGNKIAMIFQEPMVSLNPLHTLEKQLYEVLSLHRGMRREAARGEILNCLDRVGIRQAAKRLTDYPHQLSGGERQRVMIAMALLTRPELLIADEPTTALDVSVQAQILQLLRELQGELNMGMLFITHNLSIVRKLAHRVAVMQNGRCVEQNYAATLFASPTHPYTQKLLNSEPSGDPVPLPEPASTLLDVEQLQVAFPIRKGILKRIVDHNVVVKNISFTLRAGETLGLVGESGSGKSTTGLALLRLINSQGSIIFDGQPLQNLNRRQLLPIRHRIQVVFQDPNSSLNPRLNVLQIIEEGLRVHQPTLSAAQREQQVIAVMHEVGLDPETRHRYPAEFSGGQRQRIAIARALILKPSLIILDEPTSSLDKTVQAQILTLLKSLQQKHQLAYLFISHDLHVVRALCHQVIILRQGEVVEQGPCARVFATPQQEYTRQLLALS,not soluble
11,RLHSDNVYLIENNVFGTTCARVGCMPSKLLIAAAEARHHALHTDPFGVHLDKDSIVVNGEEVMQRVKSERDRFVGFVVADVEEWPADKRIMGSAKFIDEHTVQIDEHTQITAKSFVIATGSRPVILPQWQSLGNRLIINDDVFSWDTLPKRVAVFGPGVIGLELGQALHRLGVKVE,not soluble
12,MMETEVAVVPLTPLDIHNKEFSRGFRGYDEDEVNEFLDQVIKDYEMLIREKKQLEEKVAELTEKLNYFANIEETLNKSILVAQEAAEEVKRNAQKEAKLIIKEAEKNAERIISDALAKSRKIALEIEELKRQSKVFRARFRMLVEAQLDMINSRDWDELMEYEAPDLEEGAREPLSQP,not soluble
13,MSLNDTVTVRISFAVNIATRVIAEVPLFSLTKPSHQELLQKIAEQSRSPFNYPDVGASLCEFPSGYEHHHHRVRLGRGQEVFDRAKEALGNWRQFDVGWVEAIPSDTSITVGNTIAIRVRIFGVWAMAFDRIVDVYGEQDGECRRFGFSVGTLTEHPEQGEERFSIEIDREDHVDYEVAAFFRPNTLAAKMAWPVLHRRFNRFRNQSAEAMQLACKLGPSSEGHHHHHH,not soluble
14,MAHHHHHHSGTVTDDYLANNVDYASGFKGPLPMPPSKHIAIVACMDARLDVYRMLGIKEGEAHVIRNAGCVVTDDVIRSLAISQRLLGTREIILLHHTDCGMLTFTDDDFKRAIQDETGIRPTWSPESYPDAVEDVRQSLRRIEVNPFVTKHTSLRGFVFDVATGKLNEVTP,soluble
15,MEDYEGKFSPSELKLKGIHTSTTFWTVGMIVQQYKNGHLVIPKIQRGYVWNEEKARRFIMSLLQGFPIPPIFIIELSGKFYVVDGQQRIRTILWFLGEDNELLEKLGPLRVPIKELAENYNEYGVTNLSEAIIKKIIFGNHPKEFNYKYFTKDFRQYFESLSIPVQHISISSGKEYILTDIFLRINQGSVKLSAMELWRVYYGKDIEEYFHKLNELARYTVAKIYEVSNGKISRQKLERFRIDEFILTFDVLINGLITPPNYIPKDAKLGAVIFSQKTTLKKVKIFVLENRRKVFKNNKGELKKFLDYLEREYKEILKMITYVLGEFTFRRPTIGNECQYALIRPSGNDINEAVFLYEVAIFKLLKDNGHSELIYENKDFIKHVILTSLIENDELFSRSTSTFRSVANKLELAKLTYKKIITKEDNITKDNLKRLLYEKFRASRVSNPVCPYCKEPISDISVADLAHIRPLAFGGQTYIHNLTLAHSTCNRRFGVRDISQYINRC,soluble
16,MTKAKDLTGKKIAILAADGVEEIELTSPRAAIEAAGGTTELISLEPGEIQSMKGDIEPQEKYRVDHVVSEVQVSDYDGLLLPGGTVNPDKLRLEEGAMKFVRDMYDAGKPIAAICHGPWSLSETGIAQGLKMTSWSSLKRELTLAGAQWVDEECVTDKGVVTSRKPDDLPAFNKKIVEEFAEGDHSSRRK,soluble
17,MTDNSKIRVVVGMSGGVDSSVTALLLKEQGYDVIGVFMKNWDDTDEFGVCTATEDYKDVAAVADKIGIPYYSVNFEKEYWDRVFEYFLAEYRAGRTPNPDVMCNKEIKFKAFLDYAMTLGADYVATGHYAQVKRDENGTVHMLRGADNGKDQTYFLSQLSQEQLQKTLFPLGHLQKSEVREIAERAGLATAKKKDSTGICFIGEKNFKQFLSQYLPAQKGRMMTIDGRDMGEHAGLMYYTIGQRGGLGIGGQHGGDNQPWFVVGKDLSQNILYVGQGFYHEALMSNSLDASVIHFTREMPEEFTFECTAKFRYRQPDSHVAVHVRGDKAEVVFAEPQRAITPGQAVVFYDGKECLGGGMIDMAYKNGQPCQYI,not soluble
18,LGSMAAAAAQGGGGGEPRRTEGVGPGVPGEVEMVKGQPFDVGPRYTQLQYIGEGAYGMVSSAYDHVRKTRVAIKKISPFEHQTYCQRTLREIQILLRFRHENVIGIRDILRASTLEAMRDVYIVQDLMETDLYKLLKSQQLSNDHICYFLYQILRGLKYIHSANVLHRDLKPSNLLINTTCDLKICDFGLARIADPEHDHTGFLTEYVATRWYRAPEIMLNSKGYTKSIDIWSVGCILAEMLSNRPIFPGKHYLDQLNHILGILGSPSQEDLNCIINMKARNYLQSLPSKTKVAWAKLFPKSDSKALDLLDRMLTFNPNKRITVEEALAHPYLEQYYDPTDEPVAEEPFTFAMELDDLPKERLKELIFQETARFQPGVLEAP,soluble
19,MSNSFGIKVIACDKIFYNGRCTQLVLPLRDGSKAIQAHHENMVFSVEVGEIKITKEDGSTIVGVTGTGFAQMVNNRATVIVDTCEYPEEIDLRRAEEAKERAEEQLRQKQSIAEYHISKASLARAMARLKEGSGKGTPYGY,not soluble
20,MSNGNTDPVFDFEDALDQTEMAQLAVDELKKIPEVNTLFAERWLPAPFNLDDLAKLPEGTLGHVYAIEMKARGFDPYFYKKVPVVDDISYLKMLWRSTHDIYHVVAGFDTDGIGEIGLQAFVLAQTPIPISVMLVSFGMVMTSLYQPAKFQDLMAEIARGYSLGSHTPRKLIAQKWDQFWDVPVIEIRECLGMNTVKQRERALEHHHHHH,not soluble
